Key:
GPC2 antigen = molecular target: T1, GPC2 antigen (UniProt Q8N158 24-553, limits assumed); assay: flow cytometry of Jurkat T cells expressing the construct, GPC2 binding read in the APC channel; GPC2 concentration not given
T1 construct: also called glypican-2
T1 sequence (looked up): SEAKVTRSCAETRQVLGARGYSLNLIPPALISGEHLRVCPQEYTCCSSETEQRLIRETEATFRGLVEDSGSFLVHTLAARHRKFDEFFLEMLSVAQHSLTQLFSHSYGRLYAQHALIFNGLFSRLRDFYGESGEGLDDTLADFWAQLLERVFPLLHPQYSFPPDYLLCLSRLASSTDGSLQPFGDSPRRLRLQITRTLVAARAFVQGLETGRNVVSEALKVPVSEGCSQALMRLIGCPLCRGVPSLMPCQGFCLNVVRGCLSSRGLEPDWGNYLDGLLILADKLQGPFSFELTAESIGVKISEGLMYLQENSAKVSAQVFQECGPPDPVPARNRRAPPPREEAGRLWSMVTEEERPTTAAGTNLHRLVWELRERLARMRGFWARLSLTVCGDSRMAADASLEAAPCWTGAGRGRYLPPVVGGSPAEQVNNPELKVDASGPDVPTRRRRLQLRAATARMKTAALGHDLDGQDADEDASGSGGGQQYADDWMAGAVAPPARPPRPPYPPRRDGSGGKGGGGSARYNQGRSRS
Text: Shown in FIG. 12 is a flow cytometric analysis of Jurkat T cells expressing CT3 and hCT3 CARs (CT3-CD28HTM and hCT3-1 CD28HTM, respectively) and AbTCRs+CSRs (ART-CT3-CT3 and ART-hCT3-1-hCT3-1, respectively). T cells expressing each of the constructs were capable of binding to GPC2 antigen. Mock T cells not expressing a CAR or AbTCR+CSR were included as a negative control.

GPC3 protein [1] = molecular target: GPC3 protein (UniProt P51654); assay: flow cytometry of Jurkat T cells expressing the construct, stained with 4.6ng/ml (0.08nM) GPC3-hFc
GPC3 protein [2] = molecular target: GPC3 protein (UniProt P51654); assay: flow cytometry of Jurkat T cells expressing the construct, stained with 2.3ng/ml (0.04nM) GPC3-hFc

B1: ART-hCT3-1-hCT3-1 AbTCR+CSR (other)
chain 1: DVVMTQSPLSLPVTPGEPASISCRASSSVNYIYWYLQKPGQSPQLWIYYTSNLAPGVPDRFSGSGSGTDFTLKISRVEAEDVGVYYCQQFSSSPSTFGQGTKLEIKRSRGGGGSGGGGSGGGGSLEMAQVQLVQSGAEVKKPGASVKVSCKASRFTFTDYNIHWVRQAPGQGLEWIGYINPNNGDIFYKQKFNGRVTLTADKSTSTAYMELSSLTSEDTAVYYCVRSSNIRYTFDRFFDVWGQGTLVTVSSEQKLISEEDLAAATGAPPLGTQPDCNPTPENGEAPASTSPTQSLLVDSQASKTLPIPTSAPVALSSTGKPVLDAGPVLFWVILVLVVVVGSSAFLLCHRRACRKRIRQKLHLCYPVQTSQPKLELVDSRPRRSSTQLRSGASVTEPVAEERGLMSQPLMETCHSVGAAYLESLPLQDASPAGGPSSPRDLPEPRVSTEHTNNKIEKIYIMKADTVIVGTVKAELPEGRGLAGPAEPELEEELEADHTPHYPEQETEPPLGSCSDVMLSVEEEGKEDPLPTAASGK
chain 2: QVQLVQSGAEVKKPGASVKVSCKASRFTFTDYNIHWVRQAPGQGLEWIGYINPNNGDIFYKQKFNGRVTLTADKSTSTAYMELSSLTSEDTAVYYCVRSSNIRYTFDRFFDVWGQGTLVTVSSASTKGPSVFPLAPSSKSTSGGTAALGCLVKDYFPEPVTVSWNSGALTSGVHTFPAVLQSSGLYSLSSVVTVPSSSLGTQTYICNVNHKPSNTKVDKRVEPKSCEVKTDSTDHVKPKETENTKQPSKSCHKPKAIVHTEKVNMMSLTVLGLRMLFAKTVAVNFLLTAKLFFL
chain 3: DVVMTQSPLSLPVTPGEPASISCRASSSVNYIYWYLQKPGQSPQLWIYYTSNLAPGVPDRFSGSGSGTDFTLKISRVEAEDVGVYYCQQFSSSPSTFGQGTKLEIKRTVAAPSVFIFPPSDEQLKSGTASVVCLLNNFYPREAKVQWKVDNALQSGNSQESVTEQDSKDSTYSLSSTLTLSKADYEKHKVYACEVTHQGLSSPVTKSFNRGECPIKTDVITMDPKDNCSKDANDTLLLQLTNTSAYYMYLLLLLKSVVYFAIITCCLLRRTAFCCNGEKS
notes: also called ART-hCT3-hCT3; hCT3 AbTCR+CSR
B1 was tested, and the “percent of cells in the GPC2-binding-positive gate” value (GPC2 antigen) was 62.4%.

B2: ART-HN3-HN3 AbTCR+CSR (protein)
chain 1: QVQLVQSGGGLVQPGGSLRLSCAASYFDFDSYEMSWVRQAPGKGLEWIGSIYHSGSTYYNPSLKSRVTISRDNSKNTLYLQMNTLRAEDTATYYCARVNMDRFDYWGQGTLVTVSSEQKLISEEDLAAATGAPPLGTQPDCNPTPENGEAPASTSPTQSLLVDSQASKTLPIPTSAPVALSSTGKPVLDAGPVLFWVILVLVVVVGSSAFLLCHRRACRKRIRQKLHLCYPVQTSQPKLELVDSRPRRSSTQLRSGASVTEPVAEERGLMSQPLMETCHSVGAAYLESLPLQDASPAGGPSSPRDLPEPRVSTEHTNNKIEKIYIMKADTVIVGTVKAELPEGRGLAGPAEPELEEELEADHTPHYPEQETEPPLGSCSDVMLSVEEEGKEDPLPTAASGK
chain 2: QVQLVQSGGGLVQPGGSLRLSCAASYFDFDSYEMSWVRQAPGKGLEWIGSIYHSGSTYYNPSLKSRVTISRDNSKNTLYLQMNTLRAEDTATYYCARVNMDRFDYWGQGTLVTVSSASTKGPSVFPLAPSSKSTSGGTAALGCLVKDYFPEPVTVSWNSGALTSGVHTFPAVLQSSGLYSLSSVVTVPSSSLGTQTYICNVNHKPSNTKVDKRVEPKSCEVKTDSTDHVKPKETENTKQPSKSCHKPKAIVHTEKVNMMSLTVLGLRMLFAKTVAVNFLLTAKLFFL
chain 3: QVQLVQSGGGLVQPGGSLRLSCAASYFDFDSYEMSWVRQAPGKGLEWIGSIYHSGSTYYNPSLKSRVTISRDNSKNTLYLQMNTLRAEDTATYYCARVNMDRFDYWGQGTLVTVSSRTVAAPSVFIFPPSDEQLKSGTASVVCLLNNFYPREAKVQWKVDNALQSGNSQESVTEQDSKDSTYSLSSTLTLSKADYEKHKVYACEVTHQGLSSPVTKSFNRGECPIKTDVITMDPKDNCSKDANDTLLLQLTNTSAYYMYLLLLLKSVVYFAIITCCLLRRTAFCCNGEKS
B2 gave a percent of cells in the binding-positive gate (GPC3 protein [1]) of 70.6% and a percent of cells in the binding-positive gate (GPC3 protein [2]) of 56.9%.

B3: hCT3 CAR (hCT3-1 CD28HTM) (other)
VH: QVQLVQSGAEVKKPGASVKVSCKASRFTFTDYNIHWVRQAPGQGLEWIGYINPNNGDIFYKQKFNGRVTLTADKSTSTAYMELSSLTSEDTAVYYCVRSSNIRYTFDRFFDVWGQGTLVTVSS
VL: DVVMTQSPLSLPVTPGEPASISCRASSSVNYIYWYLQKPGQSPQLWIYYTSNLAPGVPDRFSGSGSGTDFTLKISRVEAEDVGVYYCQQFSSSPSTFGQGTKLEIK
notes: only hCT3-1 VH and VL are tied to the antibody; also called hCT3-CD28HTM
In the case of B3, the “percent of cells in the GPC2-binding-positive gate” value (GPC2 antigen) is reported as 26.5%.

B4: CT3 CAR (CT3-CD28HTM) (other)
VH: EVQLQQSGPELVKPGASVKMSCKASRFTFTDYNIHWVKQSPGKTLEWIGYINPNNGDIFYKQKFNGKATLTINKSSNTAYMELRSLTSEDSAVYYCVRSSNIRYTFDRFFDVWGTGTTVTVSS
VL: ENVLTQSPAIMSASLGEKVTMSCRASSSVNYIYWYQQKSDASPKLWIYYTSNLAPGVPARFSGSGSGNSYSLTISSMEGEDAATYYCQQFSSSPSTFGTGTKLELK
notes: Only the CT3 VH and VL are tied to the antibody
In the case of B4, the “percent of cells in the GPC2-binding-positive gate” value (GPC2 antigen) is reported as 41.9%.

B5: ART-CT3-CT3 AbTCR+CSR (other)
chain 1: ENVLTQSPAIMSASLGEKVTMSCRASSSVNYIYWYQQKSDASPKLWIYYTSNLAPGVPARFSGSGSGNSYSLTISSMEGEDAATYYCQQFSSSPSTFGTGTKLELKRSRGGGGSGGGGSGGGGSLEMAEVQLQQSGPELVKPGASVKMSCKASRFTFTDYNIHWVKQSPGKTLEWIGYINPNNGDIFYKQKFNGKATLTINKSSNTAYMELRSLTSEDSAVYYCVRSSNIRYTFDRFFDVWGTGTTVTVSSEQKLISEEDLAAATGAPPLGTQPDCNPTPENGEAPASTSPTQSLLVDSQASKTLPIPTSAPVALSSTGKPVLDAGPVLFWVILVLVVVVGSSAFLLCHRRACRKRIRQKLHLCYPVQTSQPKLELVDSRPRRSSTQLRSGASVTEPVAEERGLMSQPLMETCHSVGAAYLESLPLQDASPAGGPSSPRDLPEPRVSTEHTNNKIEKIYIMKADTVIVGTVKAELPEGRGLAGPAEPELEEELEADHTPHYPEQETEPPLGSCSDVMLSVEEEGKEDPLPTAASGK
chain 2: EVQLQQSGPELVKPGASVKMSCKASRFTFTDYNIHWVKQSPGKTLEWIGYINPNNGDIFYKQKFNGKATLTINKSSNTAYMELRSLTSEDSAVYYCVRSSNIRYTFDRFFDVWGTGTTVTVSSASTKGPSVFPLAPSSKSTSGGTAALGCLVKDYFPEPVTVSWNSGALTSGVHTFPAVLQSSGLYSLSSVVTVPSSSLGTQTYICNVNHKPSNTKVDKRVEPKSCEVKTDSTDHVKPKETENTKQPSKSCHKPKAIVHTEKVNMMSLTVLGLRMLFAKTVAVNFLLTAKLFFL
chain 3: ENVLTQSPAIMSASLGEKVTMSCRASSSVNYIYWYQQKSDASPKLWIYYTSNLAPGVPARFSGSGSGNSYSLTISSMEGEDAATYYCQQFSSSPSTFGTGTKLELKRTVAAPSVFIFPPSDEQLKSGTASVVCLLNNFYPREAKVQWKVDNALQSGNSQESVTEQDSKDSTYSLSSTLTLSKADYEKHKVYACEVTHQGLSSPVTKSFNRGECPIKTDVITMDPKDNCSKDANDTLLLQLTNTSAYYMYLLLLLKSVVYFAIITCCLLRRTAFCCNGEKS
notes: AbTCR heterodimer and CSR are expressed together on one cell
For B5, the “percent of cells in the GPC2-binding-positive gate” value (GPC2 antigen) was 57.3%.
